Assay results: patent US20070077617

Target: fusion protein PRV
Sequence (chain, as listed by the source): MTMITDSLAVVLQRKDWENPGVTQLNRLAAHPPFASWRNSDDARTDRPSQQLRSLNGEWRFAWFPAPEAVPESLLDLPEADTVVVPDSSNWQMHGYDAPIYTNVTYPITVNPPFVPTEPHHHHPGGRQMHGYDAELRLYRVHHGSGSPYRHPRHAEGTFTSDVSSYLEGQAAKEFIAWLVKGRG

B1: OmpT protease variant OmpT D97R (protein)
chain: STETLSFTPDNINADISLGTLSGKTKERVYLAEEGGRKVSQLDWKFNNAAIIKGAINWDLMPQISIGAAGWTTLGSRGGNMVDQDWMDSSNPGTWTRESRHPDTQLNYANEFDLNIKGWLLNEPNYRLGLMAGYQESRYSFTARGGSYIYSSEEGFRDDIGSFPNGERAIGYKQRFKMPYIGLTGSYRYEDFELGGTFKYSGWVESSDNDEHYDPGKRITYRSKVKDQNYYSVAVNAGYYVTPNAKVYVEGAWNRVTNKKGNTSLYDHNNNTSDYSKNGAGIENYNFITTAGLKYTF
relative cleavage efficiency: less than 3.0%
